In series [1] the target is human lactate dehydrogenase (hLDH) (human, UniProt P00338 1-332). In words: ELASA sandwich.
The target in series [2] is Plasmodium falciparum lactate dehydrogenase (PfLDH) (Plasmodium falciparum, UniProt Q76NM3 1-316). In words: ELASA sandwich.

In the case of CTGGGCGGTAGAACCATAGTGACCCAGCCGTCTAC (ssDNA) [2008s aptamer, 3'-biotin], the values for the binding result in series [1] and in series [2] were “no binding” and “binds”, respectively.

Source of the values: PMC9562052.
